In assay [1] the target is T1, extracellular domain of hCD4 fused with human Fc tag (hCD4-hFc) (human, UniProt P01730 26-396).
T1 construct: extracellular domain; also called human CD4-hFc; hCD4 (ELISA); not shown: human Fc tag
In words: ELISA, purified hybridoma antibody on coated CD4-hFc. The method, then:
(§1) Example 2: Selection of the Anti-hCD4 Hybridoma Antibodies Based on Binding and Gene Reporter Assays The binding interaction between hybridoma antibody and human CD4-hFc was measured by ELISA. 96-well plates (Costar, Cat. No:9018) were coated with 100 μL of 2 μg/ml CD4-hFc (CrownBio) in PBS buffer (Hyclone, Cat. No: SH30256.01B) overnight at 4° C. The wells were aspirated and non-specific binding sites were blocked by adding 200 μL of blocking buffer containing 1% (w/v) of bovine serum albumin (BSA, Roche, Cat. No: 738328) and incubating for 1 hour at 37° C. After the plates are washed three times with PBS buffer containing 0.05% (v/v) Tween™ 20 (Sigma, Cat. No: P1379), 100 μL hybridoma supernatant or a serial concentrations of purified antibody (starting from 20 μg/mL) diluted in blocking buffer was added to each well and incubated at room temperature for 1 hour. The plates were washed and incubated with 100 μL/well of Goat anti-Mouse IgG (Thermo, Cat. No:31432) in blocking buffer for 60 min. After the plates were washed, 100 μL/well of substrate solution TMB (eBioscience, Cat. No:00-4201-56) was added, and the plates were incubated for 2 min at room temperature before 100 μL/well of 2N H_2SO_4 was added to stop the reaction. The colorimetric signals were monitored at 450 nm using a SpectraMax Plus microplate reader (Molecular Devices). For the purified antibody, data were analyzed using GraphPad Prism 5 to calculated the $EC50$.
On the technique in general: ELISA stands for enzyme-linked immunosorbent assay.

In assay [2] the target is T1, extracellular domain of hCD4 fused with …. In words: ELISA, chimeric antibody on hCD4, method similar to Example 2. The method, then:
as §1
(§2) Freestyle 293 cells (200 mL at 1*10^6/mL) were transfected with 100 µg of each of the chimeric heavy and light chain expression plasmids and cultured for 6 days at 37° C. The chimeric antibody in the supernatant was then purified with Protein-A column (GE healthcare). Binding of the chimeric antibody with CD4 was measured by ELISA (FIG. 3, Table 5) and FACS (FIG. 4, Table 6), using the similar methods described above in Example 2.

Assay [3] has as its target T2, extracellular domain of hCD4 fused with a histidine tag (hCD4-HisTag) (human, UniProt P01730 26-396).
T2 construct: extracellular domain; also called human CD4-HisTag; not shown: histidine tag
Put plainly: Biacore T200 SPR, antibody captured on Protein A, CD4-HisTag analyte, 1:1 fit, 25 C. As for the experimental part:
The binding kinetics between CD4 and CD4 antibodies were measured by Biacore™ analysis, which was performed at 25° C. on a Biacore™ T200 instrument. Protein A (GE, Cat. No:29139131-AA) was diluted with 10 mM pH 5.0 sodium acetate and immobilized onto reference and experiment flow cells of a CM5 biosensor chip to around 15000 RU using an amine coupling kit (GE, BR10050). In the beginning of each cycle, diluted test antibody (1.5 µg/mL) was injected over experiment flow cell for 1 minute to be captured. CD4-HisTag analyte series were prepared by diluting the stocks with running buffer to 100 nM followed by 2-fold serial dilution in the same buffer down to 0.78 nM. Analytes were injected in series over the reference and experiment flow cells for 3 minutes at a flow rate of 30
μL/minute. Running buffer (PBS with 0.05% P20) was allowed to flow over for 10 minutes at a flow rate of 30 μL/minute. At the end of each cycle, the biosensor surface was regenerated with 3-minute injection of 10 mM pH 2.0 Glycine-HCl buffer at a flow rate of 10 μL/minute. For each analyte sample injection (i.e., each cycle), binding responses obtained from the experimental biosensor surface were double referenced by subtracting simultaneously recorded responses from the reference surface followed by additional subtraction of responses from a single referenced running buffer sample. The association and dissociation rate constants (ka and kd) were determined simultaneously by fitting double-referenced sensorgrams of the entire titration series to Langmuir model (1:1) using Biaevaluation software. The dissociation constant, KD, was calculated from the determined rate constants by the equation KD=kd/ka.
On the technique in general: Surface plasmon resonance follows binding to a sensor surface in real time, without labels.

Assay [4] has as its target T3, human CD4 on 293T cells stably expressing CD4 (CD4-293T) (human, UniProt P01730 26-458).
T3 construct: whole, on cells; also called 293T-CD4 cells; hCD4 (FACS)
In words: FACS, chimeric antibody on CD4-293T cells. The method, then: (§3) Cell binding analysis of anti-CD4 antibody was performed using 293T cell line stably expressing CD4 (CD4-293T). 2*10^5 CD4-293T cells were added to each well of 96-well plate and incubated with the indicated hybridoma supernatant or a serial concentrations of purified antibody (starting from 20 μg/mL) at 4° C. for 1 h. After the cells were washed three times with FACS buffer, the secondary antibody (PE Goat anti-mouse: 1:200) was added to the cells at 100 μl/well, and incubated at 4° C. for 40 min. Cells were washed three times with FACS buffer and analyzed by FACS Array. The binding EC50 of purified antibody was calculated with GraphPad Prism 5.
as §2
(In flow cytometry, cells or beads pass a laser one at a time.)

Assay [5] deals with T3, human CD4 on 293T cells stably …. Put plainly: FACS on 293T cells expressing human CD4, MFI; table under the graph (unit from the graph's axis); Table 6 of the text gives this value to MT412. As for the experimental part: as §3, §2
Assay [6] has the same target. Put plainly: FACS on 293T cells expressing human CD4, MFI; table under the graph (unit from the graph's axis); Table 6 of the text gives this value to 10C2. The method, then:
as §3, §2

Assay [7] has the same target. In words: FACS on 293T cells expressing human CD4, MFI; table under the graph (unit from the graph's axis); Table 6 of the text gives this value to 2B6. As for the experimental part: as §3, §2
For assay [8] the target is unchanged. In words: FACS on 293T cells expressing human CD4, MFI; table under the graph (unit from the graph's axis); Table 6 of the text gives this value to 11E12. The method, then: as §3, §2
For assay [9] the target is unchanged. In words: FACS on 293T cells expressing human CD4, MFI; table under the graph (unit from the graph's axis); Table 6 of the text gives this value to 29B7. As for the experimental part: as §3, §2

The values that follow come from patent US11254745 (CROWN BIOSCIENCE, dated 2022).

Substitutions are numbered along the chain they refer to.

For orientation: EC50 means the concentration giving half of the maximal effect. Lower therefore signals higher potency in that assay. One may read the Kd as the free concentration of one partner at which half of the binding sites on the other are occupied at equilibrium, for simple one-to-one binding. Read a high Kd as weaker binding. What is called koff is a measure of how fast the partners let go of each other. As a reminder, the kon is the second-order rate constant of association.

B1: 10C2 murine hybridoma anti-CD4 antibody (antibody, V domains shown)
VH: EVKLQQSGTELMKPGASVKISCKATGYTFSSYWIEWIKQRPGRGLEWIGEILPGSGSTNYNEEFTGRATFTADTFSNTAYMQLSSLTSEDSAVYYCARSVSASNWYFDVWGAGTTVTVSS
VL: DIVMTQSPASLAVSLGQRATISCRASQSVSTSSYSYMHWYQQKPGQPPKFLIKYASNLESGVPARFSGSGSGTDFTLNIHPVEEEDTATYYCQHSWEIPPTFGGGTKLEIK
notes: also called hybridoma clone 10C2
On to B1, for which the concentration for a half-maximal effect (EC50) in assay [1] was 0.0368 µg/mL.

B2: Chimeric 29B7 anti-CD4 antibody (antibody, human IgG1, kappa, V domains shown)
VH: QVQLQQSGAELAKPGASVKMSCKTSADSLNTHWMHWVKQRPGQGLEWIGYINPYTGSGEYSQKFKGKATLTADISSSTAYMQLISLTSEDSAVYYCAYDSTGAMDYWGQGTSVTVSS
VL: DIKMTQSPSSMYASLGERITITCKASQDINRYLSWFQQKPGKSPKTPIYRADRSVDGVPSRFSGSGSGQDYSLTISSLEYEDMGIYYCQQYDEFPYTFGGGTKLEIKR
B2: the half-maximal effective concentration (EC50) in assay [2] stood at 0.0243 µg/mL. In assay [3], the Kd worked out at 0.0843 nM, the koff worked out at 5.98e-05 s⁻¹ and the kon is 709000 M⁻¹ s⁻¹. Besides, the concentration for a half-maximal effect (EC50) in assay [4] was 0.401 µg/mL. The molecule further registered an EC50 in assay [5] of 0.515 µg/mL.

B3: 29B7 murine hybridoma anti-CD4 antibody (antibody, V domains shown)
VH: B2 VH
VL: DIKMTQSPSSMYASLGERITITCKASQDINRYLSWFQQKPGKSPKTPIYRADRSVDGVPSRFSGSGSGQDYSLTISSLEYEDMGIYYCQQYDEFPYTFGGGTKLEIK
notes: also called hybridoma clone 29B7
With B3, the half-maximal effective concentration (EC50) in assay [1] was 0.0334 µg/mL.

B4: Chimeric 33E12 anti-CD4 antibody (antibody, human IgG1, kappa, V domains shown)
VH: DVQLQESGPGLVKPSQSLSLTCTVTGYSITSDYAWNWIRQFPGNKLEWMGYISYSGITSYNPSLKSRFSITRDTSKNQFFLQLNSVTTEDTATYYCARLDSSGYGAMDYWGQGTSVTVSS
VL: DIVLTQSPASLPVSLGQRATISCRASQSVSTSSYSYMHWYQQKPGQPPKLLIRYASNLESGVPARFSGSGSGTDFTLNIHPVEEEDTATYYCQHSWDFPLTFGAGTKLELKR
For the molecule B4, the EC50 was 0.0204 µg/mL in assay [2], 0.351 µg/mL in [4] and 0.882 µg/mL in assay [6]. In [3], this molecule had a Kd of 4.25 nM. The molecule further showed an off-rate constant (koff) in assay [3] of 0.00461 s⁻¹. The molecule further showed an on-rate (kon) in assay [3] of 1.09e+06 M⁻¹ s⁻¹.

B5: Chimeric 10C2 anti-CD4 antibody (antibody, human IgG1, kappa, V domains shown)
VH: B1 VH
VL: B4 VL with L4M, P12A, L50F, R53K, D97E, F98I, L100P, A104G, L110I
B5 gave a concentration for a half-maximal effect (EC50) in [2] of 0.0179 µg/mL. In [3], binding was put at a Kd of 1.19 nM, the off-rate constant (koff) was determined as 0.00019 s⁻¹ and the association rate constant (kon) came to 160000 M⁻¹ s⁻¹. For the same molecule, the EC50 in assay [7] was 0.669 µg/mL. The concentration for a half-maximal effect (EC50) in assay [4] was found to be 0.882 µg/mL.

B6: 33E12 murine hybridoma anti-CD4 antibody (antibody, V domains shown)
VH: B4 VH
VL: B1 VL with M4L, A12P, F50L, K53R, E97D, I98F, P100L, G104A, I110L
notes: Mouse antibody purified from hybridoma supernatant on Protein A and detected with goat anti-mouse IgG; also called hybridoma clone 33E12
In assay [1], B6 gave an EC50 of 0.034 µg/mL.

B7: Chimeric MT412 anti-CD4 antibody (antibody, human IgG1, kappa, V domains shown)
VH: QIQLVQSGPELKKPGETVKISCKASGYTFTDYSMHWVKQAPGKDLKWMGWINTETGEPTYADDFKGRFAFSLETSASTAYLQINNLKNEDTATYFCAREDYYGHDGFLYWGQGTLVTVSS
VL: DIVMTQSHKFMSTSVGDRVSITCKASQDVVTTVAWYQQKPGQSPKLLIYWASLRHTGVPDRFTGSGSGTDFTLTISNVQFEDLADYFCQQYSSYPYTFGGGTKLEIKR
As for B7, in [2], it took 0.0165 µg/mL to reach a half-maximal effect (EC50). In assay [3], this molecule came in with a Kd of 1.61 nM, a koff of 0.000941 s⁻¹ and an on-rate constant (kon) of 586000 M⁻¹ s⁻¹. For the same molecule, in assay [4], the midpoint of the response, the EC50, lay at 0.515 µg/mL.

B8: Chimeric 2B6 anti-CD4 antibody (antibody, human IgG1, kappa, V domains shown)
VH: EVQLQESGPSLVKPSQTLSLTCSVTGDSITSGYWNWIRKFPGHKLEFLGYISFADTTNYNPSLKSRVSITRDTSKNQFDLQLKSVTTEDTATYHCARDDYGYYAMDYWGQGISVTVSS
VL: DIHLTQTTSSLSASLGDRVTIICRASQDIDNYLNWYQLKPDGTLKLLIYYTSRLHSGVPSRFSGSGSGTEYSLTISNLEREDVATYFCQQGNTLPTFGAGTKLELKR
Consider B8, for which the EC50 in assay [2] worked out at 0.0165 µg/mL. Besides, in [3], the dissociation constant (Kd) was 0.373 nM, the koff stood at 0.000122 s⁻¹ and the association rate constant (kon) came out at 327000 M⁻¹ s⁻¹. A half-maximal effect in assay [8] (EC50) was put at 0.316 µg/mL. In assay [4], this molecule displayed a concentration giving a half-maximal response (EC50) of 0.669 µg/mL.

B9: 2B6 murine hybridoma anti-CD4 antibody (antibody, V domains shown)
VH: B8 VH
VL: DIHLTQTTSSLSASLGDRVTIICRASQDIDNYLNWYQLKPDGTLKLLIYYTSRLHSGVPSRFSGSGSGTEYSLTISNLEREDVATYFCQQGNTLPTFGAGTKLELK
notes: also called hybridoma clone 2B6
On to B9, for which, in [1], the EC50 was determined as 0.0261 µg/mL.

B10: Chimeric 11E12 anti-CD4 antibody (antibody, human IgG1, kappa, V domains shown)
VH: B8 VH with Q5E, G32S, V67I, H94Y, Y100F
VL: B8 VL with H3Y, L4V, D30N, S63G, R80Q
For the molecule B10, the results for the concentration for a half-maximal effect (EC50) in assay [2], in [9] and in assay [4] were 0.0168 µg/mL, 0.401 µg/mL and 0.316 µg/mL, respectively. This molecule gave a Kd in [3] of 6.26 nM. Also, the koff in [3] came out at 0.00618 s⁻¹. Also, the kon in assay [3] was found to be 987000 M⁻¹ s⁻¹.

B11: 11E12 murine hybridoma anti-CD4 antibody (antibody, V domains shown)
VH: B8 VH with Q5E, G32S, V67I, H94Y, Y100F
VL: B9 VL with H3Y, L4V, D30N, S63G, R80Q
notes: also called hybridoma clone 11E12
Molecule B11 yielded an EC50 in [1] of 0.027 µg/mL.
